Each block holds one binder with its values, some of them ahead of it.
Legend:
[1] = molecular target: T1, hEGFRvIII (human epidermal growth factor receptor variant III) on transiently transfected HEK293F cells (human, UniProt P00533 25-1210); assay: FACS, purified His-tagged scFv on HEK293F cells transiently transfected with hEGFRvIII, anti-poly His PE
T1 construct: whole, on cells; also called human EGFRvIII
Procedure: (§1) HEK293F suspension cells were transiently transfected with either wild type hEGFR or hEGFRvIII and were harvested 2 days after transfection. Approximately 5e5 cells/per well were transferred to a BD Falcon 96 well plate. The cells were spun down at 900 rpm (Sorval Legend XT centrifuge) for 3 minutes. The supernatant was removed. Anti-EGFRvIII scFv protein samples were diluted in DPBS with 5% FBS. The samples were added into the wells, mixed and incubated for 1 hour. The cells were washed twice in the DPBS with 5% FBS. The cells were incubated with anti-poly His PE (R&D) for 1 hour, washed twice before FACS analysis (LSRII from BD Biosciences).

[2] = molecular target: T2, wild type hEGFR (human EGFR wild type) on transiently transfected HEK293F cells (human, UniProt P00533 25-1210); assay: FACS, purified His-tagged scFv on HEK293F cells transiently transfected with wild type hEGFR, anti-poly His PE
T2 construct: whole, on cells; also called wild type EGFR
Procedure: as §1

[3] = molecular target: T3, EGFRvIII-Fc fusion protein (UniProt P00533 25-645, limits assumed); assay: flow cytometry, Jurkat E6 cells electroporated with CAR vector, titrated EGFRvIII-Fc, PE anti-human IgG Fc
T3 construct: not shown: detected with PE anti-human IgG Fc
Procedure: Jurkat E6 cells were electroporated with either CAR9 vector or CAR10 vector using Amaxa Cell Line Nucleofector Kit V (Lonza, Colgne AG, Germany) and program X-001. One day after the transfection, 0.5×10⁶ cells were placed into each well of a V-shape 96 well plate (Greiner Bio-One, Germany) in 0.2 ml FACS buffer (DPBS buffer containing 5% FBS) and incubated for 10 minutes at room temperature. Cells were then spun down and resuspended in 0.2 ml of the FACS buffer with different concentrations of EGFRvIII-Fc or EGFRwt-Fc and incubated at 4° C. for 30 minutes. Cells were then washed with FACS buffer three times, and incubated with 0.2 ml of the FACS buffer with 2 μl of PE anti-human IgG Fc (Jackson ImmunoResearch Laboratories, West Grove, Pa.) for 30 minutes at 4° C. in the dark. After washing with 0.2 ml of FACS buffer three times, cells were analyzed on a LSRII (BD Biosciences, San Jose, Calif.) machine using the FACSDiva software (BD Biosciences, San Jose, Calif.). Immunofluorescence staining was analyzed as the relative log fluorescence of live cells, and the percentage of the PE positive cells were measured.

binding result [1]: binds | binding result [2]: no binding
B1: CAR8 soluble scFv (humanized anti-EGFRvIII scFv, VK2-VH1) (scFv)
scFv: DVVMTQSPLSLPVTLGQPASISCKSSQSLLDSDGKTYLNWLQQRPGQSPRRLISLVSKLDSGVPDRFSGSGSGTDFTLKISRVEAEDVGVYYCWQGTHFPGTFGGGTKVEIKGGGGSGGGGSGGGGSGGGGSEIQLVQSGAEVKKPGATVKISCKGSGFNIEDYYIHWVQQAPGKGLEWMGRIDPENDETKYGPIFQGRVTITADTSTNTVYMELSSLRSEDTAVYYCAFRGGVYWGQGTTVTVSSGSHHHHHHHH
notes: also called CAR8 scFv

binding result [1]: binds | binding result [2]: no binding
B2: CAR1 soluble scFv (humanized anti-EGFRvIII scFv, VH1-VK4) (scFv)
scFv: EIQLVQSGAEVKKPGATVKISCKGSGFNIEDYYIHWVQQAPGKGLEWMGRIDPENDETKYGPIFQGRVTITADTSTNTVYMELSSLRSEDTAVYYCAFRGGVYWGQGTTVTVSSGGGGSGGGGSGGGGSGGGGSDVVMTQSPDSLAVSLGERATINCKSSQSLLDSDGKTYLNWLQQKPGQPPKRLISLVSKLDSGVPDRFSGSGSGTDFTLTISSLQAEDVAVYYCWQGTHFPGTFGGGTKVEIKGSHHHHHHHH
notes: not tied in words; also called CAR1 scFv

binding result [1]: binds | binding result [2]: no binding
B3: CAR3 soluble scFv (humanized anti-EGFRvIII scFv, VH5-VK2) (scFv)
scFv: EIQLVQSGAEVKKPGESLRISCKGSGFNIEDYYIHWVRQMPGKGLEWMGRIDPENDETKYGPIFQGHVTISADTSINTVYLQWSSLKASDTAMYYCAFRGGVYWGQGTTVTVSSGGGGSGGGGSGGGGSGGGGSDVVMTQSPLSLPVTLGQPASISCKSSQSLLDSDGKTYLNWLQQRPGQSPRRLISLVSKLDSGVPDRFSGSGSGTDFTLKISRVEAEDVGVYYCWQGTHFPGTFGGGTKVEIKGSHHHHHHHH
notes: also called CAR3 scFv

binding result [1]: binds | binding result [2]: no binding
B4: CAR2 soluble scFv (humanized anti-EGFRvIII scFv, VK4-VH1) (scFv)
scFv: DVVMTQSPDSLAVSLGERATINCKSSQSLLDSDGKTYLNWLQQKPGQPPKRLISLVSKLDSGVPDRFSGSGSGTDFTLTISSLQAEDVAVYYCWQGTHFPGTFGGGTKVEIKGGGGSGGGGSGGGGSGGGGSEIQLVQSGAEVKKPGATVKISCKGSGFNIEDYYIHWVQQAPGKGLEWMGRIDPENDETKYGPIFQGRVTITADTSTNTVYMELSSLRSEDTAVYYCAFRGGVYWGQGTTVTVSSGSHHHHHHHH
notes: also called CAR2 scFv

binding result [1]: binds | binding result [2]: no binding
B5: CAR5 soluble scFv (humanized anti-EGFRvIII scFv, VH1-VK2) (scFv)
scFv: EIQLVQSGAEVKKPGATVKISCKGSGFNIEDYYIHWVQQAPGKGLEWMGRIDPENDETKYGPIFQGRVTITADTSTNTVYMELSSLRSEDTAVYYCAFRGGVYWGQGTTVTVSSGGGGSGGGGSGGGGSGGGGSDVVMTQSPLSLPVTLGQPASISCKSSQSLLDSDGKTYLNWLQQRPGQSPRRLISLVSKLDSGVPDRFSGSGSGTDFTLKISRVEAEDVGVYYCWQGTHFPGTFGGGTKVEIKGSHHHHHHHH
notes: also called CAR5 scFv

binding result [1]: binds | binding result [2]: no binding
B6: CAR4 soluble scFv (humanized anti-EGFRvIII scFv, VK2-VH5) (scFv)
scFv: DVVMTQSPLSLPVTLGQPASISCKSSQSLLDSDGKTYLNWLQQRPGQSPRRLISLVSKLDSGVPDRFSGSGSGTDFTLKISRVEAEDVGVYYCWQGTHFPGTFGGGTKVEIKGGGGSGGGGSGGGGSGGGGSEIQLVQSGAEVKKPGESLRISCKGSGFNIEDYYIHWVRQMPGKGLEWMGRIDPENDETKYGPIFQGHVTISADTSINTVYLQWSSLKASDTAMYYCAFRGGVYWGQGTTVTVSSGSHHHHHHHH
notes: also called CAR4 scFv

fold lower binding compared to CAR9 [3]: ~40 fold
B7: CAR10 (chimeric antigen receptor with anti-EGFRvIII clone 139 scFv), expressed on Jurkat E6 cells or primary human T cells (other)
chain: DIQMTQSPSSLSASVGDRVTITCRASQGIRNNLAWYQQKPGKAPKRLIYAASNLQSGVPSRFTGSGSGTEFTLIVSSLQPEDFATYYCLQHHSYPLTSGGGTKVEIKRTGSTSGSGKPGSGEGSEVQVLESGGGLVQPGGSLRLSCAASGFTFSSYAMSWVRQAPGKGLEWVSAISGSGGSTNYADSVKGRFTISRDNSKNTLYLQMNSLRAEDTAVYYCAGSSGWSEYWGQGTLVTVSSTTTPAPRPPTPAPTIASQPLSLRPEACRPAAGGAVHTRGLDFACDIYIWAPLAGTCGVLLLSLVITLYCKRGRKKLLYIFKQPFMRPVQTTQEEDGCSCRFPEEEEGGCELRVKFSRSADAPAYKQGQNQLYNELNLGRREEYDVLDKRRGRDPEMGGKPRRKNPQEGLYNELQKDKMAEAYSEIGMKGERRRGKGHDGLYQGLSTATKDTYDALHMQALPPR
